Measurements as given in paper PMC4098657 (Molecular microbiology, 2009).

T1: His-tagged FrzCD full-length protein (M. xanthus, UniProt P43500 1-417)
T1 sequence (looked up): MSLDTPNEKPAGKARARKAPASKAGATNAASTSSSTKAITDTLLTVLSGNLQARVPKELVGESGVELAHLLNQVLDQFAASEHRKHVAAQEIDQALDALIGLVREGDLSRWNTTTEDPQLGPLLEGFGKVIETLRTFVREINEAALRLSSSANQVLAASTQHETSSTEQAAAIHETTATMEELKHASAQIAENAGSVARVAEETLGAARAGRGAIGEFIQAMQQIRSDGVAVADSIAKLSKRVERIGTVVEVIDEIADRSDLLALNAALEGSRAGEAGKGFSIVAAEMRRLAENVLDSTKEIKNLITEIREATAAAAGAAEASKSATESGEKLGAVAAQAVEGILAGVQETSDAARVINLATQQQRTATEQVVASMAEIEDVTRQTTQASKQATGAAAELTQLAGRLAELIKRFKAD

B1: AglZ^Rec (domain or fragment, M. xanthus, UniProt Q1D823 2-240, looked up)
chain: ERRVLIVESEHDFALSMATVLKGAGYQTALAETAADAQRELEKRRPDLVVLRAELKDQSGFVLCGNIKKGKWGQNLKVLLLSSESGVDGLAQHRQTPQAADGYLAIPFEMGELAALSHGIVPPGTDDTGASLDAALNGTREAPPPMPPSLKAAAGGPPKLPKRERRSAMTEEDRAFLDRTFQSIADRKAELLAESRQLKRPPPRRELMGTPEGKIQILRDELKTREAQLARLSEIWNVR

What was measured:
Assay in all cases: cross-linking
AglZ^Rec = biological target: B1
cross-linking = biological target: the molecule itself
[1] = biological target: T1, His-tagged FrzCD full-length protein

Row | binding result (AglZ^Rec) | binding result [1] | Binder | binding result (cross-linking)
1 | binds | – | FrzCD^N-ter (domain or fragment, M. xanthus, UniProt P43500 2-135, looked up) SLDTPNEKPAGKARARKAPASKAGATNAASTSSSTKAITDTLLTVLSGNLQARVPKELVGESGVELAHLLNQVLDQFAASEHRKHVAAQEIDQALDALIGLVREGDLSRWNTTTEDPQLGPLLEGFGKVIETLR | binds
2 | – | – | FrzCD^C-ter (domain or fragment, M. xanthus, UniProt P43500 132-417, looked up) ETLRTFVREINEAALRLSSSANQVLAASTQHETSSTEQAAAIHETTATMEELKHASAQIAENAGSVARVAEETLGAARAGRGAIGEFIQAMQQIRSDGVAVADSIAKLSKRVERIGTVVEVIDEIADRSDLLALNAALEGSRAGEAGKGFSIVAAEMRRLAENVLDSTKEIKNLITEIREATAAAAGAAEASKSATESGEKLGAVAAQAVEGILAGVQETSDAARVINLATQQQRTATEQVVASMAEIEDVTRQTTQASKQATGAAAELTQLAGRLAELIKRFKAD | binds
3 | – | binds | B1 | –
